The text below walks through data of IntAct's records for PubMed 16606821.

The chains are these.
B1: Insulin-induced gene 1 protein (Homo sapiens), O15503-1 (parent)
chain: MPRLHDHFWSCSCAHSARRRGPPRASAAGLAAKVGEMINVSVSGPSLLAAHGAPDADPAPRGRSAAMSGPEPGSPYPNTWHHRLLQRSLVLFSVGVVLALVLNLLQIQRNVTLFPEEVIATIFSSAWWVPPCCGTAAAVVGLLYPCIDSHLGEPHKFKREWASVMRCIAVFVGINHASAKLDFANNVQLSLTLAALSLGLWWTFDRSRSGLGLGITIAFLATLITQFLVYNGVYQYTSPDFLYIRSWLPCIFFSGGVTVGNIGRQLAMGVPEKPHSD
partner: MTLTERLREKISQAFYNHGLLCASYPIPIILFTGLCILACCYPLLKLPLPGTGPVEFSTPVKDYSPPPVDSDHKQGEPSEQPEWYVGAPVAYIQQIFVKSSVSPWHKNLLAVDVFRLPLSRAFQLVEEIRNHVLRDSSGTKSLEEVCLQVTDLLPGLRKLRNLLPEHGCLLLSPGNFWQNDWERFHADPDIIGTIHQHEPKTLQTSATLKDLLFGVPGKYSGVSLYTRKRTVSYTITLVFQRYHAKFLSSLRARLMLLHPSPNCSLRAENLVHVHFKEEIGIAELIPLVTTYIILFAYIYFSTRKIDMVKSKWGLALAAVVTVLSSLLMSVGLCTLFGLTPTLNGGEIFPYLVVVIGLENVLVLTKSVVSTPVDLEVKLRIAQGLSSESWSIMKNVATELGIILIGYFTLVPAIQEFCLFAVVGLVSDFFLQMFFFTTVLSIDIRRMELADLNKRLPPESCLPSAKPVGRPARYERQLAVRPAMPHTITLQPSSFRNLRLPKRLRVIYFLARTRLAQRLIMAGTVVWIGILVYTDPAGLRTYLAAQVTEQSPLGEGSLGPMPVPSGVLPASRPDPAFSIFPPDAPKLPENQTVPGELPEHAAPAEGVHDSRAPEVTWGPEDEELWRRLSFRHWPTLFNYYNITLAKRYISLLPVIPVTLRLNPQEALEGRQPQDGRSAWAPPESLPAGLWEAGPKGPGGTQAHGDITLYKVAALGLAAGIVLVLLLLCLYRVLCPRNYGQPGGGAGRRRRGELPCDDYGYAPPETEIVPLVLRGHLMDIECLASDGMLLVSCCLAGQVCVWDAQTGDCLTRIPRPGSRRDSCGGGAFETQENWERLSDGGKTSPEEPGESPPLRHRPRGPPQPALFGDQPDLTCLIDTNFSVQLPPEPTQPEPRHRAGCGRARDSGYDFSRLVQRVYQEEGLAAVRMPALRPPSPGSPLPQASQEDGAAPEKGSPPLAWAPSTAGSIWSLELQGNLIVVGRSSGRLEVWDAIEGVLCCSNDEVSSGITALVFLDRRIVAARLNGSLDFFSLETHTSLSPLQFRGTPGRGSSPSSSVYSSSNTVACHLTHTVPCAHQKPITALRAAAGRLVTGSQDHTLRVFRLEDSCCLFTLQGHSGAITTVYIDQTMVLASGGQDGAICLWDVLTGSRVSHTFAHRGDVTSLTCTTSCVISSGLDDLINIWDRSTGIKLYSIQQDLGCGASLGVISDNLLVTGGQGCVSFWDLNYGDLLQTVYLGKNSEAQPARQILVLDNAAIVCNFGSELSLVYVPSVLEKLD

In this assay the parent is B1. To be noted: with scap_crigr SCAP.
Take D205A: the “effect of a mutation on the interaction” value was “disrupting interaction strength”.
